How the values were obtained:
[1] = biological target: HLA.A2-H12 / beta-2-microglobulin refolded with the 9V NY-ESO-1 peptide (A2/9V)
[2] = biological target: CD8 binding–deficient HLA.A2 (DT227/228KA) refolded with the 9V NY-ESO-1 peptide (A2^ΔCD8/9V)
[3] = biological target: HLA.A2-H12 / beta-2-microglobulin refolded with the 9V NY-ESO-1 peptide (A2/9V); remark: listed apart in the source

Substance	EC50: antigen density on the SLB at half-maximum T cell activation (Fura-2 calcium response); receptor by CRISPR-Cas9 knock-in (antigen molecules per μm^2) [1]	EC50: antigen density on the SLB at half-maximum T cell activation (Fura-2 calcium response); receptor by CRISPR-Cas9 knock-in (antigen molecules per μm^2) [2]	specific lysis of HLA.A2-expressing K562 cells pulsed with 0.1 nM 9V peptide after 6, 8 and 24 hours of coculture at 1:1 (luciferase); 1G4 by CRISPR-Cas9 [3]
1G4 TCR	0.00703	0.0181	65 % killing
c58c61 1G4hi TCR	0.04	0.0736	
